Results taken from article PMC4748816 (RNA, 2016).
Where a chain is given by its changes, count along the chain named. Names may count otherwise. Values belong to the molecule of their own block, whether it stands above or below them.

Experiments:
[1] = target: Alexa Fluor 647-labeled Loqs-3 (Loqs-3^AF647), single-labeled dimer fraction (Drosophila) (UniProt Q9VJY9); experiment: SEC
[2] = target: GST-Loqs-3 (minimal linker plus dsRBD3) (Drosophila) (UniProt Q9VJY9); experiment: pull-down
[3] = target: His-tagged GFP-dmDcr1 (Drosophila) (UniProt Q9VCU9); experiment: fluorescence cross-correlation spectroscopy
[4] = target: His-tagged GFP-dmDcr1 (Drosophila, UniProt Q9VCU9 1-2249); experiment: fluorescence cross-correlation spectroscopy
[5] = target: the molecule itself; experiment: SEC

Sequence of His-tagged GFP-dmDcr1 (Q9VCU9 whole entry): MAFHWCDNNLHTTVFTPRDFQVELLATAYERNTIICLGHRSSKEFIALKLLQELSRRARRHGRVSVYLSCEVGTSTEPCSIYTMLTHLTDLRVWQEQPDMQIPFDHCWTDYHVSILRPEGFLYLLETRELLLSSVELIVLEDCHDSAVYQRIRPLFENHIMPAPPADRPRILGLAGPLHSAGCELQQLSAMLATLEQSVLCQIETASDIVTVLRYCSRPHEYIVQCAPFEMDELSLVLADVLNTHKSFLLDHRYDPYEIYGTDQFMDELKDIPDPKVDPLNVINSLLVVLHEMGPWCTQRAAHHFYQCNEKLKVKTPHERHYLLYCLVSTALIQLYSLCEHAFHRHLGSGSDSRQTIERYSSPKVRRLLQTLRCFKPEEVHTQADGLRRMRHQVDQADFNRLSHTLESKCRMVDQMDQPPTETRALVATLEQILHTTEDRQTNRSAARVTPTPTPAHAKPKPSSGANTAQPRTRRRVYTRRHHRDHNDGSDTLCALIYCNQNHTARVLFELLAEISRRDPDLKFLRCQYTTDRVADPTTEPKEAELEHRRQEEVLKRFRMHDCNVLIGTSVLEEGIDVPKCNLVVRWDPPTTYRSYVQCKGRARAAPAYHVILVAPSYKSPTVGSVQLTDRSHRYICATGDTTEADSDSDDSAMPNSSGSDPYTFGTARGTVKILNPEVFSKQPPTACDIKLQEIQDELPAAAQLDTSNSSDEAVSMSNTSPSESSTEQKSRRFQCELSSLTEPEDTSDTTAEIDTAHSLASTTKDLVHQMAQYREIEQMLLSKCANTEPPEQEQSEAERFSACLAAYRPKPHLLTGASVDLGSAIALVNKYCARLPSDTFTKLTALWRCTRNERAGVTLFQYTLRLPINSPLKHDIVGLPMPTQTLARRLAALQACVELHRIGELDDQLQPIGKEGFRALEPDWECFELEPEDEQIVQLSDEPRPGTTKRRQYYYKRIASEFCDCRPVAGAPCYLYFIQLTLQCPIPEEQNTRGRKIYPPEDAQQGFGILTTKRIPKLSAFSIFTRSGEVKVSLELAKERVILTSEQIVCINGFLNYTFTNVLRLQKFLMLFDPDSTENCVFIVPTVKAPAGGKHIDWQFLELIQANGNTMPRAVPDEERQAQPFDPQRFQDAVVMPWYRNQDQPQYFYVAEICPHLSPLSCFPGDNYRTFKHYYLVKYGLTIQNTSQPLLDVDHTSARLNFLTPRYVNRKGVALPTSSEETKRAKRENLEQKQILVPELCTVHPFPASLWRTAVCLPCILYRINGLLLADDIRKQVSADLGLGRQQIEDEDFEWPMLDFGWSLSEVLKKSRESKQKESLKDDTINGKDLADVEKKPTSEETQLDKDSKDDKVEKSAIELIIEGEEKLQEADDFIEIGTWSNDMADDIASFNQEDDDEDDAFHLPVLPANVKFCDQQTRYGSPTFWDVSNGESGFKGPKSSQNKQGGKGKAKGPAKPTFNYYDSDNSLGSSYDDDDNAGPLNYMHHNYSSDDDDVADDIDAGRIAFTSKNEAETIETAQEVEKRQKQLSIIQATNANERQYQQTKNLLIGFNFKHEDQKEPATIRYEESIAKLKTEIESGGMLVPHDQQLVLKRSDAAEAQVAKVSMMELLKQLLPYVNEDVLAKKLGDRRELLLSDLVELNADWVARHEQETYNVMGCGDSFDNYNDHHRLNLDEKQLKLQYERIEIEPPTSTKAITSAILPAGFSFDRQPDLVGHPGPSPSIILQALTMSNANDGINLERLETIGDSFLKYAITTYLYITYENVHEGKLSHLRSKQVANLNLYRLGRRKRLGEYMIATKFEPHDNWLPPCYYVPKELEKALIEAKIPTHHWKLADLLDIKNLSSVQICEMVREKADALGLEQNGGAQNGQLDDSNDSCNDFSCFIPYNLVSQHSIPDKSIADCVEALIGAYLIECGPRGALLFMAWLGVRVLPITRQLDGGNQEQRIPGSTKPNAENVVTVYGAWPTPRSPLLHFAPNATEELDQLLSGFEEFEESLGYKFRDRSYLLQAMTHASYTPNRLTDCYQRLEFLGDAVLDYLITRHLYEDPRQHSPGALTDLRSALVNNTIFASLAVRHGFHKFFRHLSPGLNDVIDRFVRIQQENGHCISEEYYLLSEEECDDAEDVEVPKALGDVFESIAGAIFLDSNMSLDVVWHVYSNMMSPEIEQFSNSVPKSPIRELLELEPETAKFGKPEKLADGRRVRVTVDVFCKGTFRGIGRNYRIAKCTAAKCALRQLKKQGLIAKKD
Sequence of His-tagged GFP-dmDcr1 (Drosophila) (Q9VCU9 whole entry): as above

Molecule: His-tagged dmDcr1 (Drosophila Dicer1), Q9VCU9 1-2249
fold binding against dsRBD3 alone [2]: 10 fold

Molecule: Alexa Fluor 647-labeled dsRBD3 (dsRDB3^AF647) (from UniProt Q9VJY9 392-463) (domain or fragment)
Kd [3]: 192 nM

B2: Loqs-3 K460E (size-exclusion chromatography) (domain or fragment, Drosophila, UniProt Q9VJY9 368-463, looked up)
chain: HKTLKNATGKKLLKLQKTCLKNNKIDYIKLLGEIATENQFEVTYVDIEEKTFSGQFQCLVQLSTLPVGVCHGSGPTAADAQRHAAQNALEYLEIMT
binding result [5]: binds

Now from value to molecule:

stoichiometry N [1]: 2
Molecule: Alexa Fluor 647-labeled Loqs-3 (Loqs-3^AF647), single-labeled dimer fraction (from UniProt Q9VJY9 368-463) (domain or fragment)

IC50 [4]: 9.3 nM | Ki [4]: 3.6 nM
B1: Loqs-3, unlabeled, purified (domain or fragment, Drosophila, UniProt Q9VJY9 368-463, looked up)
chain: B2 chain with E93K

IC50 [4]: 104 nM | Ki [4]: 43.6 nM
B3: Loqs dsRBD3, unlabeled, purified (domain or fragment, Drosophila)
chain: IDYIKLLGEIATENQFEVTYVDIEEKTFSGQFQCLVQLSTLPVGVCHGSGPTAADAQRHAAQNALEYLKIMT
